Data published in the supplement of paper PMC10567573.

B1: SOAT2 (parent)
chain: SLGKQKVFIIRKSLLDELMEVQHF

Variants of: B1
Assay: protein stability index of a GFP-peptide fusion (GPS, HEK-293T) (PSI 1-6); higher = more stable
Settings: c terminus: a fixed tail appended
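Also: lentivirally expressed fusions sorted by FACS into six bins by GFP to DsRed ratio, PSI derived from sequencing read proportions per bin multiplied by bin number.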

Variant	protein stability index
SLGKQKVFEIRKSLLDELMEVQHF	1.76
SLGKQKVFTIRKSLLDELMEVQHF	1.84
SLGKQKVFVIRKSLLDELMEVQHF	2.84
SLGKQKVFGIRKSLLDELMEVQHF	1.79
SLGKQKVFLIRKSLLDELMEVQHF	1.21
SLGKQKVFKIRKSLLDELMEVQHF	1.58
SLGKQKVFAIRKSLLDELMEVQHF	1.99
SLGKQKVFRIRKSLLDELMEVQHF	1.8
SLGKQKVFDIRKSLLDELMEVQHF	2.18
SLGKQKVFQIRKSLLDELMEVQHF	1.89
SLGKQKVFHIRKSLLDELMEVQHF	2.22
SLGKQKVFYIRKSLLDELMEVQHF	2.85
SLGKQKVFWIRKSLLDELMEVQHF	3.62
SLGKQKVFSIRKSLLDELMEVQHF	2.15
SLGKQKVFMIRKSLLDELMEVQHF	2.21
SLGKQKVFFIRKSLLDELMEVQHF	2.41
SLGKQKVFPIRKSLLDELMEVQHF	2.1
SLGKQKVFCIRKSLLDELMEVQHF	1.76
SLGKQKVFNIRKSLLDELMEVQHF	2.02
SLGKNKVFIIRKSLLDELMEVQHF	2.51
SLGKYKVFIIRKSLLDELMEVQHF	1.85
SLGKRKVFIIRKSLLDELMEVQHF	3.01
SLGKMKVFIIRKSLLDELMEVQHF	3.06
SLGKTKVFIIRKSLLDELMEVQHF	2.23

Variant	protein stability index
SLGKSKVFIIRKSLLDELMEVQHF	2.73
SLGKPKVFIIRKSLLDELMEVQHF	2.87
SLGKWKVFIIRKSLLDELMEVQHF	2.93
SLGKVKVFIIRKSLLDELMEVQHF	2.91
SLGKQKVEIIRKSLLDELMEVQHF	2.58
SLGKQKVIIIRKSLLDELMEVQHF	2.15
SLGKQKVVIIRKSLLDELMEVQHF	1.6
SLGKQKVAIIRKSLLDELMEVQHF	1.76
SLGKQKVQIIRKSLLDELMEVQHF	1.97
SLGKQKVKIIRKSLLDELMEVQHF	1.88
SLGKQKVPIIRKSLLDELMEVQHF	1.66
SLGKQKVSIIRKSLLDELMEVQHF	2.03
SLGKQKVYIIRKSLLDELMEVQHF	3.07
SLGKQKVLIIRKSLLDELMEVQHF	2.02
SLGKQKVNIIRKSLLDELMEVQHF	1.5
SLGKQKVGIIRKSLLDELMEVQHF	1.93
SLGKQKVRIIRKSLLDELMEVQHF	2.36
SLGKQKVTIIRKSLLDELMEVQHF	1.32
SLGKQKVDIIRKSLLDELMEVQHF	2.12
SLGKQKVCIIRKSLLDELMEVQHF	2.49
SLGKQKVHIIRKSLLDELMEVQHF	1.71
SLGKQKVWIIRKSLLDELMEVQHF	2.79
SLGKQKVMIIRKSLLDELMEVQHF	1.58
SLGKQKKFIIRKSLLDELMEVQHF	2

Variant	protein stability index
SLGKQKMFIIRKSLLDELMEVQHF	1.82
SLGKQKDFIIRKSLLDELMEVQHF	1.48
SLGKQKAFIIRKSLLDELMEVQHF	1.72
SLGKQKRFIIRKSLLDELMEVQHF	2.16
SLGKQKPFIIRKSLLDELMEVQHF	1.49
SLGKQKWFIIRKSLLDELMEVQHF	2.34
SLGKQKTFIIRKSLLDELMEVQHF	2.16
SLGKQKFFIIRKSLLDELMEVQHF	2.56
SLGKQKIFIIRKSLLDELMEVQHF	3.05
SLGKQKEFIIRKSLLDELMEVQHF	1.67
SLGKQKHFIIRKSLLDELMEVQHF	1.59
SLGKQKLFIIRKSLLDELMEVQHF	3.44
SLGKQKCFIIRKSLLDELMEVQHF	2.4
SLGKQKYFIIRKSLLDELMEVQHF	2.33
SLGKQKGFIIRKSLLDELMEVQHF	1.82
SLGKQKNFIIRKSLLDELMEVQHF	1.92
SLGKQKQFIIRKSLLDELMEVQHF	1.82
SLGKQKSFIIRKSLLDELMEVQHF	1.74
SLGKQWVFIIRKSLLDELMEVQHF	2.47
SLGKQYVFIIRKSLLDELMEVQHF	2.67
SLGKQPVFIIRKSLLDELMEVQHF	1.96
SLGKQNVFIIRKSLLDELMEVQHF	1.6
SLGKQCVFIIRKSLLDELMEVQHF	3.68
SLGKQQVFIIRKSLLDELMEVQHF	2.98

Variant	protein stability index
SLGKQDVFIIRKSLLDELMEVQHF	1.67
SLGKQLVFIIRKSLLDELMEVQHF	2.24
SLGKQTVFIIRKSLLDELMEVQHF	3.25
SLGKQMVFIIRKSLLDELMEVQHF	3.33
SLGKQEVFIIRKSLLDELMEVQHF	2.05
SLGKQVVFIIRKSLLDELMEVQHF	1.81
SLGKQRVFIIRKSLLDELMEVQHF	2.74
SLGKQGVFIIRKSLLDELMEVQHF	1.99
SLGKQAVFIIRKSLLDELMEVQHF	2.08
SLGKQHVFIIRKSLLDELMEVQHF	1.97
SLGKQFVFIIRKSLLDELMEVQHF	2.71
SLGKQIVFIIRKSLLDELMEVQHF	3.06
SLGKQSVFIIRKSLLDELMEVQHF	2.46
SLGKQKVFILRKSLLDELMEVQHF	2.38
SLGKQKVFIDRKSLLDELMEVQHF	2.41
SLGKQKVFIGRKSLLDELMEVQHF	1.91
SLGKQKVFIFRKSLLDELMEVQHF	3.02
SLGKQKVFIERKSLLDELMEVQHF	1.47
SLGKQKVFIHRKSLLDELMEVQHF	1.65
SLGKQKVFIARKSLLDELMEVQHF	1.9
SLGKQKVFICRKSLLDELMEVQHF	2.69
SLGKQKVFIKRKSLLDELMEVQHF	1.48
